Assay results as given in patent US20100119450A1 (published 2010).

How the values were obtained:
[1] = biological target: T1, amyloid-β peptide Aβ1-40 (wild-type) (UniProt P05067 672-711); assay: SPR (BIACORE X), LRP-1 cluster immobilized on CM5 chip, Aβ in solution; apparent Kd from koff/kon
T1 construct: domain: Aβ1-40; Soluble monomeric synthetic peptide; used 125I-labeled as tracer in capillary and in vivo studies; also called Aβ40; wild-type Aβ1-40
Protocol: (§1) Incubation conditions as described under Materials and Methods. […] Apparent affinity constants K_{d(app)} were deduced from the ratios of k_{off(app)}/kₒₙ₍ₐₚₚ₎ as described under Materials and Methods. […] K_{d(app)} (mean±SD) values were determined from 6 to 9 different concentrations of Aβ and 3 to 5 independent measurements at each concentration.
(§2) (as described in Westein et al., 2002). […] Ligand solution was replaced with buffer to initiate dissociation. The data were analyzed to calculate apparent association rate constants kₒₙ₍ₐₚₚ₎ and apparent dissociation rate constants k_{off(app)} using a single-site binding model (as described in Westein et al., 2002). Apparent affinity constants K_{d(app)} were inferred from the ratio k_{off(app)}/kₒₙ₍ₐₚₚ₎. Data are based on three to five measurements using six to nine different concentrations for each measurement. Data are presented as the mean±SEM. Analysis was performed using BIACORE X biosensor system (Uppsala, Sweden) and BIA evaluation 3.0 software (Biocore, Sweden).

[2] = biological target: T2, amyloid-β peptide Aβ1-42 (wild-type) (UniProt P05067 672-713); assay: as above
T2 construct: domain: Aβ1-42; Synthetic peptide; also called Aβ42
Protocol: as §1, §2

B1: recombinant LRP-1 fragment encompassing cluster II (receptor, UniProt Q07954 805-1184, looked up)
chain: NKCRVNNGGCSSLCLATPGSRQCACAEDQVLDADGVTCLANPSYVPPPQCQPGEFACANSRCIQERWKCDGDNDCLDNSDEAPALCHQHTCPSDRFKCENNRCIPNRWLCDGDNDCGNSEDESNATCSARTCPPNQFSCASGRCIPISWTCDLDDDCGDRSDESASCAYPTCFPLTQFTCNNGRCININWRCDNDNDCGDNSDEAGCSHSCSSTQFKCNSGRCIPEHWTCDGDNDCGDYSDETHANCTNQATRPPGGCHTDEFQCRLDGLCIPLRWRCDGDTDCMDSSDEKSCEGVTHVCDPSVKFGCKDSARCISKAWVCDGDNDCEDNSDEENCESLACRPPSHPCANNTSVCLPPDKLCDGNDDCGDGSDEGELCDQ
notes: domain: cluster II; Produced in stably transfected baby hamster kidney cells as described in Westein et al., 2002; immobilized on CM5 chip; also called LRP-1 cluster II; LRP-1 II
Work on B1 yielded a Kd [1] of 0.57 nM and a Kd [2] of 3 nM.

B2: recombinant LRP-1 fragment encompassing cluster IV (receptor)
chain: not shown
notes: domain: cluster IV; Produced in stably transfected baby hamster kidney cells as described in Westein et al., 2002; immobilized on CM5 chip; also called LRP-1 cluster IV; LRP-1 IV
Work on B2 yielded a Kd [1] of 1.24 nM and a Kd [2] of 10.1 nM.
